Measured values reported in the nanobody polyreactivity screen of Harvey et al. (2022).

Assay: yeast display, Sf9 membrane polyspecificity reagent, FACS + sequencing; frameworks hold sequencing errors
Summary of the method: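 Sorting gates, low and high (top ~1%), were placed on anti-HA fluorescence to track expression and on streptavidin fluorescence to track reagent binding. A clone's polyreactivity label is taken from the gate it came out of. The reagent was 10% biotinylated, detergent-solubilized Sf9 membrane, applied for 1 hour at 4 °C to galactose-induced yeast display cells.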

Row | Sequence | polyreactivity (PSR sort gate)
1 | QVQLVESGGGLVQAGGSLRLSCAASGFTFRYNAMGWYRQAPGKKGSWVAAISRTGGSTYYADSVKGRFTISRDNAKNTVYLQMNSLKPEDTAVYYCARAPEGTGGKYGYWGQGTQVTVSS | high polyreactivity
2 | QVQLVESGGGLVQAGGSLRLSCAASGFTFRYYAMGWYRPAPGKERELVAAISWSGGSTYYADSVKGRFTISRDNAKNTVYLQMYTLIPEDTAVYDCNAAWPGYISNRLGYDYWGQGTQVTVSS | high polyreactivity
3 | QVQLVESGGGLVQAGGSLRLSCAASGFTFRYYAMGWYRQAPGKEREFVAAIRSSGTTTSYADSVKGRFTISRDNAKNTVYLHMHSLKPEDTAVYYCAAGYFGPQQYYYWGQGTQVTVSS | high polyreactivity
4 | QVQLVESGGGLVQAGGSLRLSCAASGFTFRYYAMGWYRQAPGKEREFVAAISRGGGTTYYADSVKGRFTISRDNAKNTVYLQMNSLKPEDTAVYYCATRALYWRYGYDYWGQGTQVTVSS | high polyreactivity
5 | QVQLVESGGGLVQAGGSLRLSCAASGFTFRYYAMGWYRQAPGKERELVAAINYSGGSTFYADSVKGRFTISRDNAKNTVYLQMNSLKPEDTAVYYCAATRLTPYIYGGKYNYWGQGTQVTVSS | high polyreactivity
6 | QVQLVESGGGLVQAGGSLRLSCAASGFTFRYYAMGWYRQAPGKERELVAAITGSGVNTYYADSVKGRFTISRDNAKNTVYLQMNSLKPEDTAVYYCAAESESDPLFERYYWGQGTQVTVSS | high polyreactivity
7 | QVQLVESGGGLVQAGGSLRLSCAASGFTFRYYAMGWYRQAPGKERELVAAITNVGSTNYADSVKGRFTMSRDNAKHTVYLQMNSLKPEDTAVYYCNARDYYSYDYWGQGTQVTVST | high polyreactivity
8 | QVQLVESGGGLVQAGGSLRLSCAASGFTFRYYAMGWYRQAPGKERELVAAITSGDSTYYADSVKGRFTISRDNAKNTVYLQMNSLKPEDTAVYYCAAYYYGYDYWGQGTQVTVSS | high polyreactivity
9 | QVQLVESGGGLVQAGGSLRLSCAASGFTFRYYAMGWYRQAPGKERELVAAITSGGGSTYYADSVKGRFTISRDNAKNTVYLQMNSLKPEDTAVYYCATKRARYSYDYWGQGTQVTVSS | high polyreactivity
10 | QVQLVESGGGLVQAGGSLRLSCAASGFTFRYYAMGWYRQAPGKERELVAAITSRGGNTYYADSVKGRFTISRDNAKNTVYLQMNSLKPEDTAVYYCAARYSTTMDYWGQGTQVTVSS | high polyreactivity
11 | QVQLVESGGGLVQAGGSLRLSCAASGFTFRYYAMGWYRQAPGKERELVAAITWSGGRTYYADSVKGRFTISRDNAKNTVYLQMNSLKPEDTAVYYCNTPSLWSGEDYWGQGTQVTVSS | high polyreactivity
12 | QVQLVESGGGLVQAGGSLRLSCAASGFTFRYYAMGWYRQAPGKERELVAGISRGGSTYYADSVKGRFTISRDNAKNSVYLQMNSLKPEDTAVYYCAARSYARKSYEMGYWGQGTQVTVSS | high polyreactivity
13 | QVQLVESGGGLVQAGGSLRLSCAASGFTFRYYAMGWYRQAPGKERELVAGISWSGSRTYYADSVKGRFTISRDNAKNTVYLQMNSLKPEDTAVYYCAKVNSYGPVPDRYDYWGQGTQVTVSS | high polyreactivity
14 | QVQLVESGGGLVQAGGSLRLSCAASGFTFRYYAMGWYRQAPGKERELVARISSRGGSTNYADSVKGRFTISRDNAKNTVYLQMNSLKAEDTAVYFCAAASWNSNRHYYVARYYYWGQGTQVTVSS | high polyreactivity
15 | QVQLVESGGGLVQAGGSLRLSCAASGFTFRYYAMGWYRQAPGKERELVASINWSGGSTYYADSVKGRFTISRDNAKNTVYFQMNSLKPEDTAVYYCAADSIWGHYFARFDYWVQGTQVTVSS | high polyreactivity
16 | QVQLVESGGGLVQAGGSLRLSCAASGFTFRYYAMGWYRQAPGKERELVASISRSGSTNYADSVKGRFTISRDNAKNTVYLQMNSLKPEDTAVYYCAAQLYSRGGYWGQGTQVTVSS | high polyreactivity

Row | Sequence | polyreactivity (PSR sort gate)
17 | QVQLVESGGGLVQAGGSLRLSCAASGFTFRYYAMGWYRQAPGQERELVAAITRGAGSTYYADSVKGRFTISRDNAKNTDYFQMNSLKPEDTAVYYCAAEFFQYYVATPFDPSNYWGQGTQVTVSS | low polyreactivity
18 | QVQLVESGGGLVQAGGSLRLSCAASGFTFRYYAMGWYRQEPGKERELVAAISRSDSRTYADSVKGRFTISRDNAMNTVYIQMNSLNPEDTAVYYCNARYGYSSYVFIFDYWGQGTQVTVSS | high polyreactivity
19 | QVQLVESGGGLVQAGGSLRLSCAASGFTFRYYTMGWYRQAPGKERELVARITTGGSTYYADPVKGRFTISRDNAKKTVYLQMNSLKPEDTAVYFCAARLSRWWPPTGVHYTDRYYWGQGTQVTVSS | high polyreactivity
20 | QVQLVESGGGLVQAGGSLRLSCAASGFTFRYYTMGWYRQAPGKERELVASITWRGGSTYYADSVKARFTISRDNAKNTVYLQMNSMKPEDTAVYYCNAERPYQYYPGIYRWYYYWGQGTQVTVSS | low polyreactivity
21 | QVQLVESGGGLVQAGGSLRLSCAASGFTFRYYVMGWYRQAPGIERELVAAISWSGGSTYYADSVKGRFTISRDNAKYTVYLQMNSLNPEDTAVYYCNAASLSKSDYWGQGTQVTVSS | high polyreactivity
22 | QVQLVESGGGLVQAGGSLRLSCAASGFTFRYYVMGWYRQAPGKERELVARISTGASTHYADSVKGRFTISRDNAKNSVYLQKNSLKPEDTAVYYCASDHPAFGPGYSFDYWGLGTQVTVSS | low polyreactivity
23 | QVQLVESGGGLVQAGGSLRLSCAASGFTFSAYAMGWSRQAPGKERELVAAITLRGGSTYYADSVKGRFTISRDNAKNTVYLQMNSLKPEDTAVYYCAADRIYVAYDYWGQGTQVTVSS | low polyreactivity
24 | QVQLVESGGGLVQAGGSLRLSCAASGFTFSEYAMGWYRQAPGKERELVAAISQRGGSTYYADSVKGRFTISRDNAKNTVYLQMNSLKPEDTAVYYCAADSARYYGAKRFGYWGQGTQVTVSS | high polyreactivity
25 | QVQLVESGGGLVQAGGSLRLSCAASGFTFSEYAMGWYRQAPGKERELVAAISRGTSTYYADSVKGRFTISRDNAKNTVYLQMNSVKPEDTAVYYCAAAPSYYPARHGYWGQVTQVTVSS | low polyreactivity
26 | QVQLVESGGGLVQAGGSLRLSCAASGFTFSFYAMGCDRQAPGKERELVATISSGGSTTYADSVKGRFTISRDNANNTVYLHMNSLKPEDTAVYYCAARYGRVRNYRYDYWGKGTQVTVSS | high polyreactivity
27 | QVQLVESGGGLVQAGGSLRLSCAASGFTFSFYAMGWYRQAPGKERELVAPISYSGGITYYADSVKGRFTISRENWKNTVYLQMNSLKPEDTAVYYCAAVPYYSKGSSHYNSGNNYCGQGTQVTVSS | low polyreactivity
28 | QVQLVESGGGLVQAGGSLRLSCAASGFTFSFYSMGWYRQAPGKERELVASISDSDGITFYADSVKGSFTISRDNAKNTVYLQMNSLKPEDTAVYYCAADVAIAIPFSYDYWGQGTQVTVSS | low polyreactivity
29 | QVQLVESGGGLVQAGGSLRLSCAASGFTFSGYAMGWYRQAPGKERELVAAISTSGGNTYYADSVKGRFTISRDNAKNTVYLQMNSLKPEDTAVYYCAADDWPWGDAGVDYWGQGTLVTVSS | low polyreactivity
30 | QVQLVESGGGLVQAGGSLRLSCAASGFTFSHNAMGWYRQAPGKERELVAAISGSGGRTYYADSVKGRFTISRDNAKNTVYLQMNSLKPEDTAVYYCNAGRWWRRGYGYWGQGTQVTVSS | high polyreactivity
31 | QVQLVESGGGLVQAGGSLRLSCAASGFTFSINTMGWYRQAPGKERQFVAGISRSGGSTYYADSVKWRFTISRDNAKNTVYLQMNSLKPEDTAVYYCAAGGPYWSRYEYWGQGNQVTVSS | high polyreactivity
32 | QVQLVESGGGLVQAGGSLRLSCAASGFTFSLYAMGWYRQAPGKEREMVAAISRIGGRTYYADSVKGRFTISRDNAKNTVYLQMNSLKPEDTAVYYCAARQGYRSYRRYDYWGQGTQVTVSS | high polyreactivity
